According to patent publication US20260001928A1 (CORTERIA PHARMACEUTICALS, priority 2022, published 2026):
*1 amine or outer side, *2 acyl side, *3 side chain or, on linkers, in order; H or OH if unused. Where no end group is shown, it is not given here. Side-chain parts run from the residue outwards. [ ]: non-standard residue; d: D form. The star is where a group is joined. C16 diacid = O=C(O)CCCCCCCCCCCCCCC(=O)*; γGlu = O=C(O)[C@H](CCC(=O)[*:2])N[*:1]; NMeV = CN[C@H](C(=O)O)C(C)C; Decanoyl = CCCCCCCCCC(=O)*; Api = NC1(C(=O)O)CCNCC1; Hexanoyl = CCCCCC(=O)*; Aib = CC(C)(N)C(=O)O

T1: CRF1R receptor (UniProt P34998 24-415, limits assumed)
T1 sequence (looked up): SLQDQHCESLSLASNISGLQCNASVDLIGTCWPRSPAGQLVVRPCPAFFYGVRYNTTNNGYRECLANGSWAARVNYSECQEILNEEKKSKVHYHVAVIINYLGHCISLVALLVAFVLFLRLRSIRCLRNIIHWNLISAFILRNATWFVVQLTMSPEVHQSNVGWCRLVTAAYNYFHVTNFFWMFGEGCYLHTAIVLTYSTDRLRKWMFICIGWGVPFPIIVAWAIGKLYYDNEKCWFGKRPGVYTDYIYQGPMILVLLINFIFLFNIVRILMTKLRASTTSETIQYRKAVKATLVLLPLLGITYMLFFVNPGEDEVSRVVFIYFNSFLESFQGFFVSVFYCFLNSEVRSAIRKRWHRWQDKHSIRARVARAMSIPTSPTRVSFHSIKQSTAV

B1: SEQ ID NO 157 (peptide)
peptide: Hexanoyl-VLSLD[dV]PIKLK([γGlu-C16 diacid])KILLEQEKQKKQREQAETN[Api]QILAQV-NH2
SMILES: CCCCCC(=O)N[C@H](C(=O)N[C@@H](CC(C)C)C(=O)N[C@@H](CO)C(=O)N[C@@H](CC(C)C)C(=O)N[C@@H](CC(=O)O)C(=O)N[C@@H](C(=O)N1CCC[C@H]1C(=O)N[C@H](C(=O)N[C@@H](CCCCN)C(=O)N[C@@H](CC(C)C)C(=O)N[C@@H](CCCCNC(=O)CC[C@H](NC(=O)CCCCCCCCCCCCCCC(=O)O)C(=O)O)C(=O)N[C@@H](CCCCN)C(=O)N[C@H](C(=O)N[C@@H](CC(C)C)C(=O)N[C@@H](CC(C)C)C(=O)N[C@@H](CCC(=O)O)C(=O)N[C@@H](CCC(N)=O)C(=O)N[C@@H](CCC(=O)O)C(=O)N[C@@H](CCCCN)C(=O)N[C@@H](CCC(N)=O)C(=O)N[C@@H](CCCCN)C(=O)N[C@@H](CCCCN)C(=O)N[C@@H](CCC(N)=O)C(=O)N[C@@H](CCCNC(=N)N)C(=O)N[C@@H](CCC(=O)O)C(=O)N[C@@H](CCC(N)=O)C(=O)N[C@@H](C)C(=O)N[C@@H](CCC(=O)O)C(=O)N[C@H](C(=O)N[C@@H](CC(N)=O)C(=O)NC1(C(=O)N[C@@H](CCC(N)=O)C(=O)N[C@H](C(=O)N[C@@H](CC(C)C)C(=O)N[C@@H](C)C(=O)N[C@@H](CCC(N)=O)C(=O)N[C@H](C(N)=O)C(C)C)[C@@H](C)CC)CCNCC1)[C@@H](C)O)[C@@H](C)CC)[C@@H](C)CC)C(C)C)C(C)C
B2: SEQ ID NO 158 (peptide)
peptide: Decanoyl-VLSLD[dV]PIKLK([γGlu-C16 diacid])KILLEQEKQKKQREQAETN[Aib]QILAQV-NH2
SMILES: CCCCCCCCCC(=O)N[C@H](C(=O)N[C@@H](CC(C)C)C(=O)N[C@@H](CO)C(=O)N[C@@H](CC(C)C)C(=O)N[C@@H](CC(=O)O)C(=O)N[C@@H](C(=O)N1CCC[C@H]1C(=O)N[C@H](C(=O)N[C@@H](CCCCN)C(=O)N[C@@H](CC(C)C)C(=O)N[C@@H](CCCCNC(=O)CC[C@H](NC(=O)CCCCCCCCCCCCCCC(=O)O)C(=O)O)C(=O)N[C@@H](CCCCN)C(=O)N[C@H](C(=O)N[C@@H](CC(C)C)C(=O)N[C@@H](CC(C)C)C(=O)N[C@@H](CCC(=O)O)C(=O)N[C@@H](CCC(N)=O)C(=O)N[C@@H](CCC(=O)O)C(=O)N[C@@H](CCCCN)C(=O)N[C@@H](CCC(N)=O)C(=O)N[C@@H](CCCCN)C(=O)N[C@@H](CCCCN)C(=O)N[C@@H](CCC(N)=O)C(=O)N[C@@H](CCCNC(=N)N)C(=O)N[C@@H](CCC(=O)O)C(=O)N[C@@H](CCC(N)=O)C(=O)N[C@@H](C)C(=O)N[C@@H](CCC(=O)O)C(=O)N[C@H](C(=O)N[C@@H](CC(N)=O)C(=O)NC(C)(C)C(=O)N[C@@H](CCC(N)=O)C(=O)N[C@H](C(=O)N[C@@H](CC(C)C)C(=O)N[C@@H](C)C(=O)N[C@@H](CCC(N)=O)C(=O)N[C@H](C(N)=O)C(C)C)[C@@H](C)CC)[C@@H](C)O)[C@@H](C)CC)[C@@H](C)CC)C(C)C)C(C)C
B3: SEQ ID NO 159 (peptide)
peptide: [NMeV]LSLD[dV]PIKLK([γGlu-C16 diacid])KILLEQEKQKKQREQAETN[Aib]QILAQV-NH2
modifications: N-terminus assumed
SMILES: CC[C@H](C)[C@H](NC(=O)[C@H](CCC(N)=O)NC(=O)C(C)(C)NC(=O)[C@H](CC(N)=O)NC(=O)[C@@H](NC(=O)[C@H](CCC(=O)O)NC(=O)[C@H](C)NC(=O)[C@H](CCC(N)=O)NC(=O)[C@H](CCC(=O)O)NC(=O)[C@H](CCCNC(=N)N)NC(=O)[C@H](CCC(N)=O)NC(=O)[C@H](CCCCN)NC(=O)[C@H](CCCCN)NC(=O)[C@H](CCC(N)=O)NC(=O)[C@H](CCCCN)NC(=O)[C@H](CCC(=O)O)NC(=O)[C@H](CCC(N)=O)NC(=O)[C@H](CCC(=O)O)NC(=O)[C@H](CC(C)C)NC(=O)[C@H](CC(C)C)NC(=O)[C@@H](NC(=O)[C@H](CCCCN)NC(=O)[C@H](CCCCNC(=O)CC[C@H](NC(=O)CCCCCCCCCCCCCCC(=O)O)C(=O)O)NC(=O)[C@H](CC(C)C)NC(=O)[C@H](CCCCN)NC(=O)[C@@H](NC(=O)[C@@H]1CCCN1C(=O)[C@H](NC(=O)[C@H](CC(=O)O)NC(=O)[C@H](CC(C)C)NC(=O)[C@H](CO)NC(=O)[C@H](CC(C)C)NC(=O)[C@@H](NC)C(C)C)C(C)C)[C@@H](C)CC)[C@@H](C)CC)[C@@H](C)O)C(=O)N[C@@H](CC(C)C)C(=O)N[C@@H](C)C(=O)N[C@@H](CCC(N)=O)C(=O)N[C@H](C(N)=O)C(C)C
B4: SEQ ID NO 162 (peptide)
peptide: Ac-IVLSLD[dV]PIKLK([γGlu-C16 diacid])KILLEQEKQK[Aib]QREQAETN[Aib]QILAQV-NH2
B5: SEQ ID NO 156 (peptide)
peptide: Hexanoyl-VLSLD[dV]PIKLK([γGlu-C16 diacid])KILLEQEKQKKQREQAETN[Aib]QILAQV-NH2
SMILES: CCCCCC(=O)N[C@H](C(=O)N[C@@H](CC(C)C)C(=O)N[C@@H](CO)C(=O)N[C@@H](CC(C)C)C(=O)N[C@@H](CC(=O)O)C(=O)N[C@@H](C(=O)N1CCC[C@H]1C(=O)N[C@H](C(=O)N[C@@H](CCCCN)C(=O)N[C@@H](CC(C)C)C(=O)N[C@@H](CCCCNC(=O)CC[C@H](NC(=O)CCCCCCCCCCCCCCC(=O)O)C(=O)O)C(=O)N[C@@H](CCCCN)C(=O)N[C@H](C(=O)N[C@@H](CC(C)C)C(=O)N[C@@H](CC(C)C)C(=O)N[C@@H](CCC(=O)O)C(=O)N[C@@H](CCC(N)=O)C(=O)N[C@@H](CCC(=O)O)C(=O)N[C@@H](CCCCN)C(=O)N[C@@H](CCC(N)=O)C(=O)N[C@@H](CCCCN)C(=O)N[C@@H](CCCCN)C(=O)N[C@@H](CCC(N)=O)C(=O)N[C@@H](CCCNC(=N)N)C(=O)N[C@@H](CCC(=O)O)C(=O)N[C@@H](CCC(N)=O)C(=O)N[C@@H](C)C(=O)N[C@@H](CCC(=O)O)C(=O)N[C@H](C(=O)N[C@@H](CC(N)=O)C(=O)NC(C)(C)C(=O)N[C@@H](CCC(N)=O)C(=O)N[C@H](C(=O)N[C@@H](CC(C)C)C(=O)N[C@@H](C)C(=O)N[C@@H](CCC(N)=O)C(=O)N[C@H](C(N)=O)C(C)C)[C@@H](C)CC)[C@@H](C)O)[C@@H](C)CC)[C@@H](C)CC)C(C)C)C(C)C
B6: SEQ ID NO 161 (peptide)
peptide: Ac-IVLSLD[dV]PIKLK([γGlu-C16 diacid])KILLEQEKQKAQREQAETN[Aib]QILAQV-NH2
SMILES: CC[C@H](C)[C@H](NC(C)=O)C(=O)N[C@H](C(=O)N[C@@H](CC(C)C)C(=O)N[C@@H](CO)C(=O)N[C@@H](CC(C)C)C(=O)N[C@@H](CC(=O)O)C(=O)N[C@@H](C(=O)N1CCC[C@H]1C(=O)N[C@H](C(=O)N[C@@H](CCCCN)C(=O)N[C@@H](CC(C)C)C(=O)N[C@@H](CCCCNC(=O)CC[C@H](NC(=O)CCCCCCCCCCCCCCC(=O)O)C(=O)O)C(=O)N[C@@H](CCCCN)C(=O)N[C@H](C(=O)N[C@@H](CC(C)C)C(=O)N[C@@H](CC(C)C)C(=O)N[C@@H](CCC(=O)O)C(=O)N[C@@H](CCC(N)=O)C(=O)N[C@@H](CCC(=O)O)C(=O)N[C@@H](CCCCN)C(=O)N[C@@H](CCC(N)=O)C(=O)N[C@@H](CCCCN)C(=O)N[C@@H](C)C(=O)N[C@@H](CCC(N)=O)C(=O)N[C@@H](CCCNC(=N)N)C(=O)N[C@@H](CCC(=O)O)C(=O)N[C@@H](CCC(N)=O)C(=O)N[C@@H](C)C(=O)N[C@@H](CCC(=O)O)C(=O)N[C@H](C(=O)N[C@@H](CC(N)=O)C(=O)NC(C)(C)C(=O)N[C@@H](CCC(N)=O)C(=O)N[C@H](C(=O)N[C@@H](CC(C)C)C(=O)N[C@@H](C)C(=O)N[C@@H](CCC(N)=O)C(=O)N[C@H](C(N)=O)C(C)C)[C@@H](C)CC)[C@@H](C)O)[C@@H](C)CC)[C@@H](C)CC)C(C)C)C(C)C
B7: SEQ ID NO 160 (peptide)
peptide: [NMeV]LSLD[dV]PIKLK([γGlu-C16 diacid])KILLEQEKQKKQREQAETN[Api]QILAQV-NH2
modifications: N-terminus assumed
SMILES: CC[C@H](C)[C@H](NC(=O)[C@H](CCC(N)=O)NC(=O)C1(NC(=O)[C@H](CC(N)=O)NC(=O)[C@@H](NC(=O)[C@H](CCC(=O)O)NC(=O)[C@H](C)NC(=O)[C@H](CCC(N)=O)NC(=O)[C@H](CCC(=O)O)NC(=O)[C@H](CCCNC(=N)N)NC(=O)[C@H](CCC(N)=O)NC(=O)[C@H](CCCCN)NC(=O)[C@H](CCCCN)NC(=O)[C@H](CCC(N)=O)NC(=O)[C@H](CCCCN)NC(=O)[C@H](CCC(=O)O)NC(=O)[C@H](CCC(N)=O)NC(=O)[C@H](CCC(=O)O)NC(=O)[C@H](CC(C)C)NC(=O)[C@H](CC(C)C)NC(=O)[C@@H](NC(=O)[C@H](CCCCN)NC(=O)[C@H](CCCCNC(=O)CC[C@H](NC(=O)CCCCCCCCCCCCCCC(=O)O)C(=O)O)NC(=O)[C@H](CC(C)C)NC(=O)[C@H](CCCCN)NC(=O)[C@@H](NC(=O)[C@@H]2CCCN2C(=O)[C@H](NC(=O)[C@H](CC(=O)O)NC(=O)[C@H](CC(C)C)NC(=O)[C@H](CO)NC(=O)[C@H](CC(C)C)NC(=O)[C@@H](NC)C(C)C)C(C)C)[C@@H](C)CC)[C@@H](C)CC)[C@@H](C)O)CCNCC1)C(=O)N[C@@H](CC(C)C)C(=O)N[C@@H](C)C(=O)N[C@@H](CCC(N)=O)C(=O)N[C@H](C(N)=O)C(C)C

Biological target: T1, CRF1R receptor
Assay: cell-based or functional assay

Going from B1 to B2, the “Emax (% I)” value rises from 30% to 54%.

Compared with B3, B4 is lower in “Emax (% I)” value: 4% for the first, 0% for the second.

First: B5
Second: B6
The “Emax (% I)” value of the first is higher: 8% for the first, 3% for the second.

In the case of B7, the “Emax (% I)” value is reported as 2%.

In the case of B2, the “EC50” value is reported as 98.7 nM.

Biological target: human corticotropin-releasing factor 2a (CRF2a receptor) (human), Q13324
Assay: cell-based or functional assay

Chain of human corticotropin-releasing factor 2a (CRF2a receptor) (human), Q13324 (Q13324 20-411): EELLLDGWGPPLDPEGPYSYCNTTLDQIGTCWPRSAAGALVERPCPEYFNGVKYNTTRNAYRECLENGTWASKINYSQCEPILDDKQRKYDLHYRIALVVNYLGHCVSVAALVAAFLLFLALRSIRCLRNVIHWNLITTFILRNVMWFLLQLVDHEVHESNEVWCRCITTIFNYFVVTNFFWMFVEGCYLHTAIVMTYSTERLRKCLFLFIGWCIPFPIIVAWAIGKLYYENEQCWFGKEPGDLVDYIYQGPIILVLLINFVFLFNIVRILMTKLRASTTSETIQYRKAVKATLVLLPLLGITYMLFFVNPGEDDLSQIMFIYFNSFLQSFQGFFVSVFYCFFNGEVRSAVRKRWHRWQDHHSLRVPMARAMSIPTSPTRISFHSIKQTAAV

First: B1
Second: B2
The EC50 [nM] (cAMP) of the first is 8-fold higher: 0.32 nM for the first, 0.04 nM for the second.

Going from B3 to B4, the EC50 [nM] (cAMP) falls from 2.97 nM to 0.49 nM (6.1-fold).

B5 and B6 are within 1.5-fold of each other in EC50 [nM] (cAMP): 0.29 nM for the first, 0.32 nM for the second.

Binder B7 has an EC50 [nM] (cAMP) of 2.08 nM.
